# PMC5651854, “Reconstitution of human shelterin complexes reveals unexpected stoichiometry and dual pathways to enhance telomerase processivity” (Nature Communications, 2017)
# T1: Human TRF1 (human), P54274
# T1 chain: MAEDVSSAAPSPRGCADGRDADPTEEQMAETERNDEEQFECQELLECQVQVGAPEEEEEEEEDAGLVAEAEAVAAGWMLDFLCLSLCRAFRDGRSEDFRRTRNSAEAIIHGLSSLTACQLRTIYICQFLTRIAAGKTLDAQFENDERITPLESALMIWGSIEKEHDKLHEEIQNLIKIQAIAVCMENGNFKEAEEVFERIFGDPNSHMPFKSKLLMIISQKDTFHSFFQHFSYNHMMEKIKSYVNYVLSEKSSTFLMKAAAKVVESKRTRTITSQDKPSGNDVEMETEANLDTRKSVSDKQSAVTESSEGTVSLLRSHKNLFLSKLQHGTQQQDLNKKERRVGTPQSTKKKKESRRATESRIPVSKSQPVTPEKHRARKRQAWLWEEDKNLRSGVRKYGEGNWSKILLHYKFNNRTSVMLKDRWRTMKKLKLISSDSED
# T2: Human TRF2 (human), Q15554
# T2 chain: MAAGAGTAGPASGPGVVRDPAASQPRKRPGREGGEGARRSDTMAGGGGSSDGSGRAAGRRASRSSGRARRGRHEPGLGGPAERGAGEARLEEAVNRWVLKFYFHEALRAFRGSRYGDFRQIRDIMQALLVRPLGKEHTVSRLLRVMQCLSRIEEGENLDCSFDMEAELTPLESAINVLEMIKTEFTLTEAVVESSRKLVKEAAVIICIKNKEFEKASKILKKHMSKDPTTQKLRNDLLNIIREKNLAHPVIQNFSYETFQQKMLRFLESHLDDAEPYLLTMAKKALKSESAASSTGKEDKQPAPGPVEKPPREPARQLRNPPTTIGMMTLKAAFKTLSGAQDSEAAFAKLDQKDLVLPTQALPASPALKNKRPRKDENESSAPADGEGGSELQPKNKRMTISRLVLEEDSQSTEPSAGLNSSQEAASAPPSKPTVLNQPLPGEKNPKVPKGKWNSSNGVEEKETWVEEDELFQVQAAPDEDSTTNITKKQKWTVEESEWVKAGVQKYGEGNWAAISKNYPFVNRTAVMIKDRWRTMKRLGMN
# T3: Human TIN2 (human, UniProt Q9BSI4-2 1-354)
# T3 construct: cDNA cloned into pFastBac1; called full-length in the discussion; not shown: His6, N-terminal, cleaved; MBP, N-terminal, cleaved
# T3 sequence (looked up): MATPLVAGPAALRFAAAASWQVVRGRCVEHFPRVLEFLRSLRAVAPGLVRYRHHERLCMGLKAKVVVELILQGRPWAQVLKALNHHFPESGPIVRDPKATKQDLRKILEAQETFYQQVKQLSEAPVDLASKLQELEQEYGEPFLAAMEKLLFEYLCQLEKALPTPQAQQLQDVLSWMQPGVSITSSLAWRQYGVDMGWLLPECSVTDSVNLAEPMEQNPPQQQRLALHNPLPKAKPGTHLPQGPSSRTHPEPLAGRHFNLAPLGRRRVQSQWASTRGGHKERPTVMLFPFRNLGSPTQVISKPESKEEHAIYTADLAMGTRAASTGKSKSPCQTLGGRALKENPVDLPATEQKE
# T4: ybbR-tagged human TIN2 (human, UniProt Q9BSI4-2 1-354, Cy3 (from CoA-Cy3, by Sfp phosphopantetheinyl transferase) on the ybbR tag)
# T4 construct: The methods put the ybbR tag at the C-terminus of TIN2; the results speak of an N-terminal tag on each protein; also called TIN2 (ybbR tag); source: Tni insect cells (baculovirus), co-expressed, purified as complex, labelled with CoA-Cy3 by Sfp; not shown: His6, N-terminal, cleaved; MBP, N-terminal, cleaved
# T4 sequence (looked up): T3 sequence (looked up)
# B1: C8 (mixed)
# DNA 1: GACCATGCTTAGGGTTAGGGTTATCATACAAGTTAGGGTTAGGG
# DNA 2: TTGTATGATAACCCTAACCCTAAGCATGGTC
# B2: Human TRF1, P54274-1 1-439 (natural protein)
# chain: T1 chain
# B3: mCherry-TIN2S (natural protein)
# chain: T3 sequence (looked up)
# B4: Human TRF2, Q15554 1-542 (natural protein)
# chain: T2 chain
# B5: Human TRF2 (natural protein, UniProt Q15554 1-542, looked up)
# chain: T2 chain
# notes: called full-length in the discussion; predicted dimer mass printed as 119 kDa; source: Tni insect cells (baculovirus), alone or co-expressed with other shelterin proteins, purified (final SEC)
# B6: ybbR-tagged human TRF2 (natural protein, UniProt Q15554 1-542, looked up)
# chain: T2 chain
# modifications: Cy3 (from CoA-Cy3, by Sfp phosphopantetheinyl transferase) on the ybbR tag
# notes: also called TRF2 (ybbR tag); source: Tni insect cells (baculovirus), co-expressed, purified as complex, labelled with CoA-Cy3 by Sfp
# How the values were obtained:
# Human TIN2 (human) = Human TIN2 (human) (UniProt Q9BSI4); assay: SEC-MALS; purified proteins or co-expressed, purified complexes at 1 mg ml^−1, 100 µl on Superose 6 Increase 10/300 GL, 0.5 ml min^−1, 25 °C, 50 mM HEPES pH 7.5, 300 mM NaCl, 1 mM TCEP
# mCherry-TIN2S, Q9BSI4-2 = assay: LacI-LacO array fluorescence colocalization in cells; conditions: U2OS 2-6-3 cell line; n > 50 nuclei per construct from 3 biological replicates; parent: est. 0.90; read off a plot
# TRF2 = TRF2 (Homo sapiens, UniProt A0ACI8RU48 1-541); assay: EMSA (agarose); 500 nM protein; some smearing; Agarose EMSA: 50 mM Tris-HCl pH 8.0, 150 mM KCl, 2 mM MgCl2, 1 mM DTT, 10% glycerol, 0.5 mg/ml BSA, 0.02 mg/ml carrier dsDNA, 30 min 23 C (gel at 4 C); FP: same buffer without carrier DNA, 23 C; conditions: protein: recombinant; tags: 6xHis N-term; chain copies: 2; label: 5'-32P on long strand (EMSA); 3' overhang 13 nt
# [1] = biological target: T1, Human TRF1 (human), P54274; assay: SEC-MALS; purified proteins or co-expressed, purified complexes at 1 mg ml^−1, 100 µl on Superose 6 Increase 10/300 GL, 0.5 ml min^−1, 25 °C, 50 mM HEPES pH 7.5, 300 mM NaCl, 1 mM TCEP; conditions: remark: other sources report otherwise
# [2] = biological target: eGFP–TPP1_(480–544)–LacI (human); assay: LacI–LacO array recruitment (fluorescence colocalisation); eGFP–TPP1–LacI constructs tethered to a LacO array in U2-OS 2-6-3 cells, co-transfected with mCherry-TIN2S; fixed 24 h after transfection; fraction of nuclei with mCherry at the single GFP focus
# eGFP–TPP1–LacI (human) = eGFP–TPP1–LacI (human) (UniProt Q96AP0); assay: as above
# [3] = biological target: T2, Human TRF2 (human), Q15554; assay: SEC-MALS; purified proteins or co-expressed, purified complexes at 1 mg ml^−1, 100 µl on Superose 6 Increase 10/300 GL, 0.5 ml min^−1, 25 °C, 50 mM HEPES pH 7.5, 300 mM NaCl, 1 mM TCEP; conditions: remark: other sources report otherwise
# Human TIN2 = biological target: T3, Human TIN2; assay: as above; conditions: both partners purified
# ybbR-tagged human TIN2 = biological target: T4, ybbR-tagged human TIN2; assay: fluorescence intensity of Cy3-labelled ybbR-tagged subunits on SDS-PAGE; purified complexes (5 µM) with one ybbR tag on each subunit labelled with CoA-Cy3 (10 µM) by Sfp (1 µM), 50 mM HEPES pH 7.5, 300 mM KCl, 10 mM MgCl2, 1 mM TCEP, overnight at 4 °C; band intensities normalised to TPP1; conditions: both partners purified
# eGFP–TPP1–LacI (human), sequence (Q96AP0 whole entry): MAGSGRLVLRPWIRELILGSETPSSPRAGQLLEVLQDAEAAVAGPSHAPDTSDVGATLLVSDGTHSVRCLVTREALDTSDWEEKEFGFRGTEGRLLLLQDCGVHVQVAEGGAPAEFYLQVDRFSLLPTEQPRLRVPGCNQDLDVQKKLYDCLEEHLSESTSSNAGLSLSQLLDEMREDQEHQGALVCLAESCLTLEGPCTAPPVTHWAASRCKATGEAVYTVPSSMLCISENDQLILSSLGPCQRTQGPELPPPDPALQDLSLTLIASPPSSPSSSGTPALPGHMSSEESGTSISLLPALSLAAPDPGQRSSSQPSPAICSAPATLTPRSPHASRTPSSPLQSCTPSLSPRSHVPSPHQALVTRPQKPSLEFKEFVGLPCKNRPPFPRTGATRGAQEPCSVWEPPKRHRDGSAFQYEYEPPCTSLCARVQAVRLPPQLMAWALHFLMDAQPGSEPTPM
# eGFP–TPP1_(480–544)–LacI (human), sequence (Q96AP0 whole entry): as above
Molecule,"other: fraction of colocalization (mCherry-TIN2S, Q9BSI4-2)",also measured
Human TPP1 (from UniProt Q96AP0 1-458) (natural protein),–,stoichiometry N (TPP1 per TIN2) (Human TIN2 (human)): 1
eGFP–TPP1–LacI (from UniProt Q96AP0) NAAIRS 480 (six residues starting at 480 replaced by NAAIRS),0.92,–
eGFP–TPP1–LacI (from UniProt Q96AP0) NAAIRS 486 (six residues starting at 486 replaced by NAAIRS),0.94,–
eGFP–TPP1–LacI (from UniProt Q96AP0) NAAIRS 492 (six residues starting at 492 replaced by NAAIRS),0.93,–
eGFP–TPP1–LacI (from UniProt Q96AP0) NAAIRS 498 (six residues starting at 498 replaced by NAAIRS),0.88,–
eGFP–TPP1–LacI (from UniProt Q96AP0) NAAIRS 504 (six residues starting at 504 replaced by NAAIRS),0.92,–
eGFP–TPP1–LacI (from UniProt Q96AP0) NAAIRS 510 (six residues starting at 510 replaced by NAAIRS),0.88,–
eGFP–TPP1–LacI (from UniProt Q96AP0) NAAIRS 516 (six residues starting at 516 replaced by NAAIRS),0.93,–
eGFP–TPP1–LacI (from UniProt Q96AP0) NAAIRS 522 (six residues starting at 522 replaced by NAAIRS),0.87,–
eGFP–TPP1–LacI (from UniProt Q96AP0) NAAIRS 534 (six residues starting at 534 replaced by NAAIRS),0.93,–
eGFP–TPP1–LacI (from UniProt Q96AP0) NAAIRS 539 (six residues starting at 539 replaced by NAAIRS),0.96,–
B1,–,binding result (TRF2): binds
B2,–,stoichiometry N (subunits in the oligomer) [1]: 2
B3,–,fraction of LacO sites with colocalisation [2]: 90%; fraction of LacO sites with colocalisation (eGFP–TPP1–LacI (human)): 90%
B4,–,stoichiometry N (subunits in the oligomer) [3]: 2
B5,–,stoichiometry N (Human TIN2): 2 TRF2 per TIN2
B6,–,stoichiometry N (ybbR-tagged human TIN2): 2 TRF2 per TIN2
